In patent publication US8440629B2, “Cyclic receptor-associated protein (RAP) peptides” (Raptor Pharmaceuticals Inc., priority 2007, dated 2013):
Where two headings read alike, the source gives them in different places. Blank lines part the entries; values can stand above or below the substance they belong to. Positions of bridges follow the written chain, without caps; N, C: chain ends. No end group written: not given here.

Tests used:
rhLRP1 cluster II = target: T1, rhLRP1 cluster II (Homo sapiens, UniProt Q07954); assay: Solid phase binding assay of RAP peptides
T1 construct: rhLRP1 cluster II (aa 786-1165, C-terminal Fc, 1 μg); purchased R&D Systems; host or cells: NS0
T1 sequence (Q07954 786-1165): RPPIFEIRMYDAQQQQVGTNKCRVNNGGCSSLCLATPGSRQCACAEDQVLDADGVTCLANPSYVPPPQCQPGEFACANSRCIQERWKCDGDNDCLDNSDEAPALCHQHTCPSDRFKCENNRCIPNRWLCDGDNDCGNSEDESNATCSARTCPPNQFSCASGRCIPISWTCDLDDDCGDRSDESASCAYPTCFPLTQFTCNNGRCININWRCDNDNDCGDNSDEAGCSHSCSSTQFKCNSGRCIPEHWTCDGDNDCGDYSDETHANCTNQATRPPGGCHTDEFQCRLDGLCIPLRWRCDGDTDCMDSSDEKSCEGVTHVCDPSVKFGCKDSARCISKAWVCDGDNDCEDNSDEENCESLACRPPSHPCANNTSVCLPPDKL
Procedure: Solid phase binding assays were carried out as follows. Recombinant murine VLDLR ectodomain (aa 1-798, C-terminal hexahistidine, 1 μg) or rhLRP1 cluster II (aa 786-1165, C-terminal Fc, 1 μg) were bound to Nunc Maxisorp™ 96-well plates in TBS pH 8 supplemented with 5 mM CaCl2 (TBSC) overnight at 4° C. Wells were washed with TBSC and then blocked with TBSC containing 2% BSA. Peptides were then incubated with the immobilized receptor at a range of concentrations for 2 hours in the above blocking buffer supplemented with 0.05% Tween-20 at room temperature. Identical binding reactions were done in the presence of 50 mM EDTA to provide a measure of non-specific binding. Control wells contained no added peptide. Additional controls established absence of cross-reactivity between antibodies and receptors. Wells were washed with TBSTC and bound peptides detected with streptavidin-HRP (Pierce) or polyclonal anti-RAP (1:1,000, Raptor Pharmaceutical). […] Absorption at 450 nm was measured with a microplate spectrophotometer (Molecular Devices). […]
The binding affinity of the peptides for LRP1 and VLDLR, another receptor in the LDLR family, was measured as follows. […] Bound peptides were detected with streptavidin-HRP after extensive washing. Binding values measured in the presence of EDTA were subtracted from values measured in the absence of EDTA in order to determine calcium-dependent binding levels. […]

[1] = target: T2, LRP1 cluster II (LRP1-C2) (Homo sapiens, UniProt Q07954); assay: Inhibition of RAP d3 binding to LRP1-C2 (ELISA)
T2 construct: recombinant human LRP1 cluster II (amino acids 786-1165, with C-terminal Fc tag); purchased R&D Systems; host or cells: NS0
T2 sequence (Q07954 786-1165): T1 sequence (Q07954 786-1165)
Procedure: Binding inhibition assays were also carried out to determine the ability of the mRAPc peptide to interfere with RAP d3 binding to LRP1 (cluster II), as well as binding of LRP ligands α-2-macroglobulin and uPA/PAI-1. To allow complexation with streptavidin or an anti-biotin antibody, the mRAPc peptide was fitted with an N-terminal biotin residue separated from the RAP sequence by a pentapeptide linker (GGSGG). Solid phase binding assays were performed using recombinant human LRP1 cluster II (amino acids 786-1165, with C-terminal Fc tag, 1 μg, R&D Systems, Minneapolis, Minn.) to coat Nunc MAXISORP™ 96-well plates in TBS pH 8 supplemented with 5 mM CaCl2 (TBSC) overnight at 4° C. Data was generated by ELISA assay. Wells were washed with TBSC and blocked with TBSC containing 2% BSA. In assays involving complexes between streptavidin and biotinylated peptide, LRP1 ligands (RAP d3 (2 nM), trypsin-activated α-2-macroglobulin (1 nM) or uPA/PAI-1 (10 nM) were incubated with the immobilized receptor, in the presence or absence of inhibitors, for 2 hours in the above blocking buffer supplemented with 0.05% Tween-20 at room temperature. In assays involving complexes of the anti-biotin antibody and biotinylated peptide, all inhibitor solutions were pre-incubated with immobilized LRP1-C2 prior to washing and subsequent incubation with ligand. Since the ligand binding competence of CR pairs requires calcium, identical binding reactions were done in the presence of 50 mM EDTA to provide a measure of non-specific binding. Control wells contained no added inhibitor. Wells were washed with TBS supplemented with 5 mM CaCl2 and 0.05% Tween-20. Bound ligand was detected with either anti-S-peptide-HRP conjugate (Abcam, Cambridge, Mass.), anti-α-2-macroglobulin-HRP or anti-PAI-1-HRP. Excess HRP conjugate was removed and wells washed. Color was developed using TMB reagents (BioRad, Hercules, Calif.). Absorption at 450 nm was measured with a microplate spectrophotometer (Molecular Devices, Palo Alto, Calif.).
The ability of mRAPc, in the presence and absence of either streptavidin or anti-biotin antibody, to inhibit binding of recombinant RAP d3 to LRP1-C2 was measured. […] The multifold enhancement of inhibition seen in the presence of streptavidin is consistent with an improvement in avidity upon multimerization of the minimized RAP domain.
Given the relatively weak monovalent affinity of the anti-biotin antibody for biotin (low nanomolar KD), it was hypothesized that preassembly of a multivalent complex consisting of two, suitably proximate, receptor-bound peptides and a single antibody would stabilize the peptide-antibody complex. Therefore, the antibody and peptide, in a molar ratio of one to three, was incubated with the immobilized receptor prior to washing and subsequent addition of the RAP d3 ligand. The same procedure was performed for the controls; peptide alone, antibody alone and RAP. […] Next the effect of the multimerized mRAPc was determined. The multimerized mRAPc was compared to the mRAPc monomer and full-length RAP in the inhibition of binding of two other ligands to LRP1-C2, trypsin-activated α-2-macroglobulin and the uPA/PAI-1 complex, at a single ligand concentration. […] In both cases, the complex of streptavidin and mRAPc inhibited binding with an EC50 approximately midway between RAP and the mRAPc monomer.

[2] = target: LRP1, LRP1B, LRP2, SorLA, apoER2 and VLDLR; settings: read-out: dissociation constants; cited from earlier work
LDLR, LRP5 and LRP6 = settings: cited from earlier work

Substance: CEAKIEKHNHYQKQLEIAHEKLRHAESVGDGERVSRSREKHALLEGRTKELGYTVKKHGC (disulfide 1-60) [mRAP-14c]
Kd (rhLRP1 cluster II): ~21 nM

EC50 better than peptide assembled on streptavidin ([1]; FIG. 14A): about 8 fold
EC50 improvement over monomeric mRAPc peptide ([1]; FIG. 14A): 64 fold
EC50 ([1]; inhibitor pre-incubated with immobilized receptor, washed, then ligand, FIG. 14B, read-out: EC50 of inhibition of RAP d3 binding): 0.3 nM
EC50 ([1]; ligand and inhibitor incubated together, FIG. 14A, read-out: degree of inhibition (EC50) of RAP d3 binding): 0.5 nM
Substance: RAP: receptor-associated protein, mature human RAP (SEQ ID NO: 95)
Kd [2]: < 5 nM
affinity lower than for LRP1 (LDLR, LRP5 and LRP6): at least 10 fold

inhibitory effect (in words) ([1]; ligand and inhibitor incubated together): no inhibitory effect
Substance: streptavidin: streptavidin alone, control
